Series [1] has as its target Mojiang virus attachment glycoprotein (MojV G), full length, S-tagged (Mojiang virus). As to the kind of experiment: cross-linking.
Series [2] concerns the target soluble tetrameric Mojiang virus attachment glycoprotein (MojV sG) (Mojiang virus). As to the kind of experiment: negative-stain electron microscopy.
Series [3] addresses Mojiang virus fusion glycoprotein (MojV F), full length, S-tagged (Mojiang virus). The series is described as follows: cross-linking.
Series [4] concerns the target soluble trimeric Mojiang virus fusion glycoprotein (MojV sF) (Mojiang virus). The series is described as follows: negative-stain electron microscopy.
The target of series [5] is soluble tetrameric Ghana virus attachment glycoprotein (GhV sG) (Ghana virus). The series is described as follows: negative-stain electron microscopy.
For series [6], the target named is soluble trimeric Cedar virus fusion glycoprotein (CedV sF) (Cedar virus). As to the kind of experiment: negative-stain electron microscopy.
The series “cross-linking” concerns the molecule itself. As to the kind of experiment: cross-linking.

We go through eight molecules from article PMC8004131 (Viruses, 2021).

Regarding “Mojiang virus attachment glycoprotein (MojV G), full length, S-tagged (natural protein)”, the stoichiometry N in series [1] came out at 4.

The molecule “soluble tetrameric Mojiang virus attachment glycoprotein (MojV sG) (domain or fragment)” registered a stoichiometry N in series [2] of 4.

In the case of “Mojiang virus fusion glycoprotein (MojV F), full length, S-tagged (natural protein)”, in series [3], the stoichiometry N came to 3.

As for “soluble trimeric Mojiang virus fusion glycoprotein (MojV sF) (domain or fragment)”, the stoichiometry N in series [4] came to 3.

Take “soluble tetrameric Ghana virus attachment glycoprotein (GhV sG) (domain or fragment)”: the stoichiometry N in series [5] amounted to 4.

With “soluble trimeric Cedar virus fusion glycoprotein (CedV sF) (domain or fragment)”, the stoichiometry N in series [6] was determined as 3.

B1: Hendra virus attachment glycoprotein (HeV G), full length, S-tagged (natural protein)
chain: MMADSKLVSLNNNLSGKIKDQGKVIKNYYGTMDIKKINDGLLDSKILGAFNTVIALLGSIIIIVMNIMIIQNYTRTTDNQALIKESLQSVQQQIKALTDKIGTEIGPKVSLIDTSSTITIPANIGLLGSKISQSTSSINENVNDKCKFTLPPLKIHECNISCPNPLPFREYRPISQGVSDLVGLPNQICLQKTTSTILKPRLISYTLPINTREGVCITDPLLAVDNGFFAYSHLEKIGSCTRGIAKQRIIGVGEVLDRGDKVPSMFMTNVWTPPNPSTIHHCSSTYHEDFYYTLCAVSHVGDPILNSTSWTESLSLIRLAVRPKSDSGDYNQKYIAITKVERGKYDKVMPYGPSGIKQGDTLYFPAVGFLPRTEFQYNDSNCPIIHCKYSKAENCRLSMGVNSKSHYILRSGLLKYNLSLGGDIILQFIEIADNRLTIGSPSKIYNSLGQPVFYQASYSWDTMIKLGDVDTVDPLRVQWRNNSVISRPGQSQCPRFNVCPEVCWEGTYNDAFLIDRLNWVSAGVYLNSNQTAENPVFAVFKDNEILYQVPLAEDDTNAQKTITDCFLLENVIWCISLVEIYDTGDSVIRPKLFAVKIPAQCSES
In the case of B1, the “stoichiometry N” value in the series “cross-linking” is 4.

B2: Cedar virus attachment glycoprotein (CedV G), full length, S-tagged (natural protein)
chain: MLSQLQKNYLDNSNQQGDKMNNPDKKLSVNFNPLELDKGQKDLNKSYYVKNKNYNVSNLLNESLHDIKFCIYCIFSLLIIITIINIITISIVITRLKVHEENNGMESPNLQSIQDSLSSLTNMINTEITPRIGILVTATSVTLSSSINYVGTKTNQLVNELKDYITKSCGFKVPELKLHECNISCADPKISKSAMYSTNAYAELAGPPKIFCKSVSKDPDFRLKQIDYVIPVQQDRSICMNNPLLDISDGFFTYIHYEGINSCKKSDSFKVLLSHGEIVDRGDYRPSLYLLSSHYHPYSMQVINCVPVTCNQSSFVFCHISNNTKTLDNSDYSSDEYYITYFNGIDRPKTKKIPINNMTADNRYIHFTFSGGGGVCLGEEFIIPVTTVINTDVFTHDYCESFNCSVQTGKSLKEICSESLRSPTNSSRYNLNGIMIISQNNMTDFKIQLNGITYNKLSFGSPGRLSKTLGQVLYYQSSMSWDTYLKAGFVEKWKPFTPNWMNNTVISRPNQGNCPRYHKCPEICYGGTYNDIAPLDLGKDMYVSVILDSDQLAENPEITVFNSTTILYKERVSKDELNTRSTTTSCFLFLDEPWCISVLETNRFNGKSIRPEIYSYKIPKYC
notes: source: BSR-T7/5, transfected, on cells; precipitated from lysate with S protein agarose; not shown: S-tag, N-terminal, kept
As for B2, the “stoichiometry N” value in “cross-linking” was determined as 4.
